Measurements reported in patent publication US9605266, “Cell-specific internalizing RNA aptamers against human CCR5 and uses therefore” (CITY OF HOPE).

B1: G-3-TNPO3 27-mer OVH chimera (mixed)
RNA 1: GGGAGGACGAUGCGGGCCUUCGUUUGUUUCGUCCACAGACGACUCGCCCGAUUCAAAGCCGACAUUGCAGCUCGUGUACC
RNA 2: UACACGAGCUGCAAUGUCGGCUUUG
modifications: 2'-F pyrimidines in sense strand (transcribed)
B2: G-3 aptamer (ssRNA)
RNA: GGGAGGACGAUGCGGGCCUUCGUUUGUUUCGUCCACAGACGACUCGCCCGA
modifications: 2'-F pyrimidines (2'-F-C, 2'-F-U)

Assays:
[1] = molecular target: T1, C-C chemokine receptor type 5 (CCR5) (Homo sapiens, UniProt P51681 P51681:1-352); experiment: cell_activity; HIV-1 R5 JR-FL p24 day 3; day 5 142.6 ± 41.3, day 7 79.3 ± 21.6; siRNA also contributes; details: tags: endogenous on primary PBMC-CD4+ cells; label: Cy3 on aptamer-sense strand, Cy5 on antisense strand; aptamer with UU linker and siRNA duplex, 2-nt 3' overhang
T1 sequence (P51681 whole entry, one chain of several): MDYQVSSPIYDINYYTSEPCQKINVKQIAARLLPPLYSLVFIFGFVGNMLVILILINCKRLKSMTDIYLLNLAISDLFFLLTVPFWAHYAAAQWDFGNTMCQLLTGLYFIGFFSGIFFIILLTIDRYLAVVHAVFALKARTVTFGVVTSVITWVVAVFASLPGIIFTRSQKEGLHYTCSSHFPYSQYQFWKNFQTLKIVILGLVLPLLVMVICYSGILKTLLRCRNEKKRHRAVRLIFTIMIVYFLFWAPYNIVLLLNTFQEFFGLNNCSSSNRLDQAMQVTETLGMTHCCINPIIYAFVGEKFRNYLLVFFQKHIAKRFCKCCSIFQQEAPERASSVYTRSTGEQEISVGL

[2] = molecular target: T1, C-C chemokine receptor type 5 (CCR5); experiment: cell_activity; HIV-1 R5 JR-FL p24 day 3; day 5 232.6 ± 38.3, day 7 170.4 ± 47.0; X4 strains IIIB and NL4-3 not inhibited; details: tags: endogenous on primary PBMC-CD4+ cells
Protocol: (§1) PBMCs were freshly isolated from healthy donors and CD8 cells were depleted as described above. After culture for 3 days in the activated T-cell culture medium containing interleukin-2, the cell-surface CCR5 level of PBMCs was detected by flow cytometry as described previously. HIV-1 protection assay was performed in 24-well tissue culture plates. Duplicate night-point dilution series of experimental RNAs were prepared and refolded in refolding buffer. PBMCs were washed once with pre-warmed PBS, and 4×10^5 PBMCs were seeded to each well of assay plates. Subsequently, experimental RNAs with different concentrations were added. Plates were incubated for 4-6 hours at 37° C. in a humidified 5% CO_2 incubator. Various viruses (R5 strains: JR-FL, Bal, MOI=0.01; or X4 strains: IIIB, NL4-3, MOI=0.001) were added into each well. After 24 hours incubation, the cells were gently washed with pre-warmed PBS to eliminate free viruses and were incubated sequentially at 37° C. in a humidified 5% CO_2 incubator.
(§2) The $IC50$ value of G-3 aptamer was indicated here. G-3 aptamers with different concentrations were incubated with primary PBMCs. After 4-6 hours incubation, various viruses (R5 strains: JR-FL, Bal; or X4 strains: IIIB, NL4-3) were added into each well. The culture supernatants were collected at different time points after infection for HIV-1 p24 antigen ELISA assay. […]

[3] = molecular target: T1, C-C chemokine receptor type 5 (CCR5); experiment: cell_activity; HIV-1 R5 BaL p24 day 3; day 5 245.5 ± 35.76, day 7 243.2 ± 46.16; details: tags: endogenous on in vivo generated human CD4+ T cells
[4] = molecular target: T1, C-C chemokine receptor type 5 (CCR5); experiment: cell_activity; HIV-1 R5 BaL p24 day 3; day 5 354.3 ± 113.3, day 7 >1000; details: tags: endogenous on primary PBMC-CD4+ cells
Protocol: as §1, §2

[5] = molecular target: T1, C-C chemokine receptor type 5 (CCR5); experiment: flow; apparent Kd, live cells, RT 30 min, DPBS with 1 mM Ca2+/1 mM Mg2+ and tRNA; R2 0.95; reduced by CCR5 siRNA knockdown; no binding to CCR5-negative U373-Magi; details: tags: U373-Magi-CCR5E cells
Protocol: Adherent cell lines (U373-Magi cells and U373-Magi-CCR5E cells) were washed with pre-warmed PBS and detached with Cell stripper. Suspension cell lines (CEM-NKr cells, CEM-NKr-CCR5 cells, and PBMCs) were washed twice with pre-warmed PBS. After counting the cells' number, the desired number of cells was resuspended in 100 µL binding buffer containing Cy3-labeled experimental RNA aptamers at different concentrations as shown. After incubation at room temperature for 30 min, cells were washed three times with 500 µL of pre-warmed binding buffer, and finally resuspended in 350 µL of DPBS for flow cytometry analysis (Flow cytometry core, City of Hope, CA). The dissociation constants were calculated using nonliner curve regression with a Graph Pad Prism 6.0.

[6] = molecular target: T1, C-C chemokine receptor type 5 (CCR5); experiment: cell_activity; HIV-1 R5 JR-FL p24 day 3; day 5 58.51 ± 11.22, day 7 17.09 ± 5.90; X4 NL4-3 not converged; details: tags: endogenous on in vivo generated human CD4+ T cells

Binder	IC50 [1]	IC50 [2]	IC50 [3]	IC50 [4]	Kd [5]	IC50 [6]
B1	23.2 nM	–	–	–	–	–
B2	–	220 nM	148 nM	349 nM	111 nM	48 nM
